Reference: article PMC9769477 (2022)

Molecular target: 9G1
Assay: BLI

B1: CVA16/SZ05 viral particles (complex)
chain 1: GDPIADMIDQTVNNQVNRSLTALQVLPTAANTEASSHRLGTGVVPALQAAETGASSNASDKNLIETRCVLNHHSTQETAIGNFFSRAGLVSIITMPTTGTQNTDGYVNWDIDLMGYAQLRRKCELFTYMRFDAEFTFVVAKPNGELVPQLLQYMYVPPGAPKPTSRDSFAWQTATNPSVFVKMTDPPAQVSVPFMSPASAYQWFYDGYPTFGEHLQANDLDYGQCPNNMMGTFSIRTVGTEKSPHSITLRVYMRIKHVRAWIPRPLRNQPYLFKTNPNYKGNDIKCTSTSRDKITTL
chain 2: SPSAEACGYSDRVAQLTIGNSTITTQEAANIVIAYGEWPEYCPDTDATAVDKPTRPDVSVNRFFTLDTKSWAKDSKGWYWKFPDVLTEVGVFGQNAQFHYLYRSGFCVHVQCNASKFHQGALLVAVLPEYVLGTIAGGTGNENSHPPYATTQPGQVGAVLTHPYVLDAGIPLSQLTVCPHQWINLRTNNCATIIVPYMNTVPFDSALNHCNFGLLVIPVVPLDFNAGATSEIPITVTIAPMCAEFAGLRQAVKQ
chain 3: GIPTELKPGTNQFLTTDDGVSAPILPGFHPTPPIHIPGEVRNLLEICRVETILEVNNLKTNETTPMQRLCFPVSVQSKTGELCAAFRADPGRDGPWQSTILGQLCRYYTQWSGSLEVTFMFAGSFMATGKMLIAYTPPGGSVPADRITAMLGTHVIWDFGLQSSVTLVVPWISNTHYRAHARAGYFDYYTTGIITIWYQTNYVVPIGAPTTAYIVALAAAQDNFTMKLCKDTEDIEQTANIQ
chain 4: GSQVSTQRSGSHENSNSASEGSTINYTTINYYKDAYAASAGRQDMSQDPKRFTDPVMDVIHEMAPPLK
modifications: biotin (EZ-Link Sulfo-NHS-LC-LC-Biotin labelling of the particles before BLI; sites not stated) | biotin (EZ-Link Sulfo-NHS-LC-LC-Biotin labelling of the particles before BLI; sites not stated) | biotin (EZ-Link Sulfo-NHS-LC-LC-Biotin labelling of the particles before BLI; sites not stated) | biotin (EZ-Link Sulfo-NHS-LC-LC-Biotin labelling of the particles before BLI; sites not stated)
Binder B1 has a Kd of 0.46 nM and a koff of 0.000631 s⁻¹.
